Assay results taken from paper PMC2423650 (Journal of Experimental Botany, 2008).

Molecular target: the molecule itself
Assay: SEC

B1: atToc33-His (G-domain of atToc33, His-tagged) (domain or fragment, Arabidopsis thaliana, UniProt O23680 1-251, looked up)
chain: MGSLVREWVGFQQFPAATQEKLIEFFGKLKQKDMNSMTVLVLGKGGVGKSSTVNSLIGEQVVRVSPFQAEGLRPVMVSRTMGGFTINIIDTPGLVEAGYVNHQALELIKGFLVNRTIDVLLYVDRLDVYRVDELDKQVVIAITQTFGKEIWCKTLLVLTHAQFSPPDELSYETFSSKRSDSLLKTIRAGSKMRKQEFEDSAIAVVYAENSGRCSKNDKDEKALPNGEAWIPNLVKAITDVATNQRKAIHVD
With B1 the Kd was 400 µM and the “stoichiometry N” value was 2.

B2: atToc33S/E-His (phospho-mimicking mutant of the atToc33 G-domain) (domain or fragment, Arabidopsis thaliana, UniProt O23680 1-251, looked up)
chain: MGSLVREWVGFQQFPAATQEKLIEFFGKLKQKDMNSMTVLVLGKGGVGKSSTVNSLIGEQVVRVSPFQAEGLRPVMVSRTMGGFTINIIDTPGLVEAGYVNHQALELIKGFLVNRTIDVLLYVDRLDVYRVDELDKQVVIAITQTFGKEIWCKTLLVLTHAQFSPPDELSYETFSSKRSDELLKTIRAGSKMRKQEFEDSAIAVVYAENSGRCSKNDKDEKALPNGEAWIPNLVKAITDVATNQRKAIHVD
For B2, the “fold change of the dissociation constant against atToc33” value was ~10 fold and the “stoichiometry N” value was 2.
